Measurements: patent publication US20200369728A1, “PEPTIDOMIMETIC MACROCYCLES AND USES THEREOF” (Aileron Therapeutics, Inc., priority 2015, published 2020)
Bridge positions count the residues as written; N and C are the ends. Square brackets hold non-standard residues; d marks the D form. R8 = C=CCCCCCC[C@@](C)(N)C(=O)O; Cba = N[C@@H](CC1CCC1)C(=O)O; S5 = C=CCCC[C@](C)(N)C(=O)O

B1: SP686, 5-TAMRA-BaLTF$r8EYWAQCba$SAA-NH2 (peptide)
peptide: ALTFAEYWAQAASAA
modifications: not fully specified; N-terminal 5-TAMRA on beta-alanine (Ba); $r8 crosslinked by all-carbon olefin staple to $; Cba (cyclobutyl alanine); C-terminal amide
notes: TAMRA-labeled stapled peptidomimetic macrocycle
B2: SP609, Ac-LTF$r8EYWAAibL$AAAAAa-NH2 (peptide)
peptide: LTFAEYWAXLAAAAAAA
modifications: not fully specified; N-terminal acetyl; $r8 at 4 crosslinked by all-carbon olefin staple to $ at 11; Aib (2-aminoisobutyric acid) at 9; D-Ala (a) at C-terminus; C-terminal amide
notes: stapled peptidomimetic macrocycle
B3: SP716, Ac-LTF$r8EYWAQCba$AAA-NH2 (iso2) (peptide)
peptide: Ac-LTF[R8]EYWAQ[Cba][S5]AAA-NH2
modifications: staple 4-11; also: single isomer iso2
notes: stapled peptidomimetic macrocycle, isomer iso2
B4: SP712, Ac-LTF$r8HYWAQCba$SAA-NH2 (iso2) (peptide)
peptide: LTFAHYWAQAASAA
modifications: not fully specified; N-terminal acetyl; $r8 at 4 crosslinked by all-carbon olefin staple to $ at 11; Cba (cyclobutyl alanine) at 10; C-terminal amide; single isomer iso2
notes: as for B3
B5: SP713, Ac-LTF$r8SYWAQCba$SAA-NH2 (iso2) (peptide)
peptide: LTFASYWAQAASAA
modifications: not fully specified; N-terminal acetyl; $r8 at 4 crosslinked by all-carbon olefin staple to $ at 11; Cba (cyclobutyl alanine) at 10; C-terminal amide; single isomer iso2
notes: as for B3
B6: SP615, Ac-LTF$r8EpYWAQL$AAAAAa-NH2 (peptide)
peptide: LTFAEYWAQLAAAAAAA
modifications: not fully specified; N-terminal acetyl; $r8 at 4 crosslinked by all-carbon olefin staple to $ at 11; pY at 6 (abbreviation not defined in the filing); D-Ala (a) at C-terminus; C-terminal amide
B7: SP612, Ac-LTF$r8EYWACitL$AAAAAa-NH2 (peptide)
peptide: LTFAEYWAXLAAAAAAA
modifications: not fully specified; N-terminal acetyl; $r8 at 4 crosslinked by all-carbon olefin staple to $ at 11; Cit (citrulline) at 9; D-Ala (a) at C-terminus; C-terminal amide
notes: as for B2
B8: SP602, Ac-LTF$r8GlaYWAQL$AAAAAa-NH2 (peptide)
peptide: LTFAEYWAQLAAAAAAA
modifications: not fully specified; N-terminal acetyl; $r8 at 4 crosslinked by all-carbon olefin staple to $ at 11; Gla at 5 (abbreviation not defined in the filing); D-Ala (a) at C-terminus; C-terminal amide
notes: as for B2
B9: SP600, Ac-LTF$r8QYWAQL$AAAAAa-NH2 (peptide)
peptide: LTFAQYWAQLAAAAAAA
modifications: not fully specified; N-terminal acetyl; $r8 (alpha-Me R8-octenyl-alanine) at 4 crosslinked by all-carbon olefin staple to $ (alpha-Me S5-pentenyl-alanine) at 11; D-Ala (a) at C-terminus; C-terminal amide
notes: as for B2
B10: SP603, Ac-LTF$r8F4gYWAQL$AAAAAa-NH2 (peptide)
peptide: LTFAFYWAQLAAAAAAA
modifications: not fully specified; N-terminal acetyl; $r8 at 4 crosslinked by all-carbon olefin staple to $ at 11; F4g at 5 (abbreviation not defined in the filing); D-Ala (a) at C-terminus; C-terminal amide
notes: as for B2
B11: SP610, Ac-LTF$r8EYWASL$AAAAAa-NH2 (peptide)
peptide: LTFAEYWASLAAAAAAA
modifications: not fully specified; N-terminal acetyl; $r8 at 4 crosslinked by all-carbon olefin staple to $ at 11; D-Ala (a) at C-terminus; C-terminal amide
notes: as for B2
B12: SP608, Ac-LTF$r8EYWALL$AAAAAa-NH2 (peptide)
peptide: LTFAEYWALLAAAAAAA
modifications: not fully specified; N-terminal acetyl; $r8 at 4 crosslinked by all-carbon olefin staple to $ at 11; D-Ala (a) at C-terminus; C-terminal amide
notes: as for B2
B13: SP611, Ac-LTF$r8EYWANL$AAAAAa-NH2 (peptide)
peptide: LTFAEYWANLAAAAAAA
modifications: not fully specified; N-terminal acetyl; $r8 at 4 crosslinked by all-carbon olefin staple to $ at 11; D-Ala (a) at C-terminus; C-terminal amide
notes: as for B2
B14: SP613, Ac-LTF$r8EYWAHL$AAAAAa-NH2 (peptide)
peptide: LTFAEYWAHLAAAAAAA
modifications: not fully specified; N-terminal acetyl; $r8 at 4 crosslinked by all-carbon olefin staple to $ at 11; D-Ala (a) at C-terminus; C-terminal amide
notes: as for B2
B15: SP595, Ac-LTF$r8EYWAQCba$S-NH2 (peptide)
peptide: LTFAEYWAQAAS
modifications: not fully specified; N-terminal acetyl; $r8 at 4 crosslinked by all-carbon olefin staple to $ at 11; Cba (cyclobutyl alanine) at 10; C-terminal amide
notes: as for B2
B16: SP433, Ac-LTF$r8EYWCou7QCba$SAA-NH2 (peptide)
peptide: LTFAEYWXQAASAA
modifications: not fully specified; N-terminal acetyl; $r8 at 4 crosslinked by all-carbon olefin staple to $ at 11; Cou7 at 8 (structure shown only as a drawing); Cba (cyclobutyl alanine) at 10; C-terminal amide
notes: as for B2

Legend:
[1] = biological target: T1, MDM2 (In-house, 41 kD) (UniProt Q00987 1-125, limits assumed); assay: competitive fluorescence polarization, displacement of FAM-labeled linear peptide from MDM2; grade decoded by the scale of Table 4
T1 construct: Construct limits and any tag are unknown; also called HDM2

[2] = biological target: T2, MDMX (In-house, 40 kD) (UniProt O15151 1-120, limits assumed); assay: competitive fluorescence polarization, displacement of FAM-labeled linear peptide from MDMX; grade decoded by the scale of Table 4
T2 construct: Construct limits and any tag are unknown; also called MDM4
T2 sequence (looked up): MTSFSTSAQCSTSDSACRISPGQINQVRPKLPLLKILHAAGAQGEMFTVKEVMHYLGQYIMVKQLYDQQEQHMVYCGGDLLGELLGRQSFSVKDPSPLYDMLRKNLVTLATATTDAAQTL

[3] = biological target: MDM2 (In-house, 41 kD) (UniProt Q00987); assay: competitive fluorescence polarization, displacement of FAM-labeled linear peptide from MDM2; grade decoded by the scale of Table 4
[4] = biological target: T3, MDMX (In-house, 40 kD) (UniProt O15151); assay: competitive fluorescence polarization, displacement of FAM-labeled linear peptide from MDMX; grade decoded by the scale of Table 4
T3 sequence (looked up): T2 sequence (looked up)

T1 sequence (Q00987 1-125 limits assumed): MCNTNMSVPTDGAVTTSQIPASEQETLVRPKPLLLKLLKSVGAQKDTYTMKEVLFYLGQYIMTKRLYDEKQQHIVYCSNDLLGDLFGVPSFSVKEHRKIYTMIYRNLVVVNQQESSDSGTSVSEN
MDM2 (In-house, 41 kD) (UniProt Q00987), sequence (Q00987 1-125 limits assumed): as above

Binder	Ki [1]	Ki [2]	Ki [3]	Ki [4]
B1	≤ 10 nM	–	–	–
B2	≤ 10 nM	–	–	–
B3	≤ 10 nM	≤ 10 nM	–	–
B4	≤ 10 nM	≤ 10 nM	–	–
B5	≤ 10 nM	≤ 10 nM	–	–
B6	–	–	< 10 nM	< 10 nM
B7	≤ 10 nM	–	–	–
B8	≤ 10 nM	≤ 10 nM	–	–
B9	≤ 10 nM	≤ 10 nM	–	–
B10	≤ 10 nM	≤ 10 nM	–	–
B11	≤ 10 nM	–	–	–
B12	≤ 10 nM	–	–	–
B13	≤ 10 nM	–	–	–
B14	≤ 10 nM	–	–	–
B15	> 1000 nM	–	–	–
B16	≤ 10 nM	–	–	–
